The text below walks through data of PMC8721586, “Enzymatic Switching Between Archaeal DNA Polymerases Facilitates Abasic Site Bypass” (Frontiers in Microbiology, 2021).

Substrate in this data set: Nc1nc2c(ncn2[C@H]2C[C@H](O)[C@@H](COP(=O)(O)OP(=O)(O)OP(=O)(O)O)O2)c(=O)[nH]1
The experiment in a line: steady-state single-nucleotide incorporation, FAM-primer gel assay, Michaelis-Menten fit. Type of data set: biochemical, Saccharolobus islandicus. Particulars: pH 8.0 Tris-HCl, 40 mM KCl, 10 mM MgCl2, 11 nM enzyme, 100 nM primer-template (undamaged S0; also AP-site substrates D1-D8, L1-L8), apparent Km.

B1: Dpo2 (SisDpo2) (Saccharolobus islandicus REY15A) (protein)
chain: MREMEEYVLDAYPVKGGVKLFLSNFKEKSIRTTFPVYAITDNPDVVLQHPEVKYYEEEKWKTLNGKEAKVYRFEVESFDAYYYMRKRLNVVNETPTVLSQTLYRLGIKPFRRLNSSDDEFPKVTIAKVVPLDWYGESLKGKVFEVKINNEVRRFYEKPEVEADITECLGEACNYVKSNVKIRIEKKRSPVSAKGLIEWSLISLTPLHEIAYATIGKVLTTNEAWVAFKRRIIIPKIVPRVEKLRRLENIMMADKGGLILFPQPGCYDNVYQVDFSSMYPSLIVKYNISAETVDACDDIKTELHSICLREKGIIPEALEWLIKRKSELKRIDKERAEAIKWILVASFGYLGYRNSLFGKIEAYEMVTYLARKTLRRTMEIAEEMGLKVLHSIIDSLVVKGDNIDKFIERVEKETGLRLDHKRYNWIIFTTTRNDTPYPTRYIANMNGEIIAKGLIRENMPNIVKSFLKDVLRGLSLTRTCSDVKKVRIRDLYEKYRKRTINGEPIDYVIWIKGVPYVRGIKGFYDARLGYMGRDVNYYINYLRRVYDNVEEVISRC
notes: recombinant, expressed in native host S. islandicus E233S; purified as in Feng et al. 2021
In the case of B1, the Km (usually the substrate concentration at which the rate is half of its maximum) was found to be 118 ± 22.7 µM; the catalytic constant (kcat) (in general, the number of substrate molecules converted per active site and unit of time at saturation) is 0.525 ± 0.125 s⁻¹.
